Source: publication PMC3950713
Residue numbers refer to the chain shown, from its start.

Assays:
Assay in all cases: MST
[1] = target: T1, HpDprA(5-217)R143E (Helicobacter pylori 26695, UniProt O25100 5-217, R143E)
T1 sequence: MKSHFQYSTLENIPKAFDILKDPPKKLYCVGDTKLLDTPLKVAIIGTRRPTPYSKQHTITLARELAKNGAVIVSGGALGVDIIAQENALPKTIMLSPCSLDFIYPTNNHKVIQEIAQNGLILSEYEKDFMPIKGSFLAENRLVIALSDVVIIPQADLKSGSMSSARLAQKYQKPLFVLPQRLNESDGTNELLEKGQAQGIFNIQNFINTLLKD

[2] = target: T2, HpDprA(5-217)K137E (Helicobacter pylori 26695, UniProt O25100 5-217, K137E)
T2 sequence: T1 sequence with K133E, E139R

[3] = target: T3, HpDprA(5-217)R52E/K137E (Helicobacter pylori 26695, UniProt O25100 5-217, R52E;K137E)
T3 sequence: T1 sequence with R48E, K133E, E139R

[4] = target: T4, HpDprA(5-225) (Helicobacter pylori 26695, UniProt O25100 5-225)
T4 sequence: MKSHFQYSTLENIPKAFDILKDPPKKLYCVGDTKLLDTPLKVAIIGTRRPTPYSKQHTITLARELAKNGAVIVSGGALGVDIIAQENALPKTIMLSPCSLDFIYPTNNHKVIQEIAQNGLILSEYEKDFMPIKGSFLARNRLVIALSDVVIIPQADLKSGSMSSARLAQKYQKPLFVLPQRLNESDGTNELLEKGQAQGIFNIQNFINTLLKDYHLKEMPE

[5] = target: T5, HpDprA(5-217)K137E/R143E (Helicobacter pylori 26695, UniProt O25100 5-217, K137E;R143E)
T5 sequence: T1 sequence with K133E

[6] = target: T6, HpDprA full-length (Helicobacter pylori 26695, UniProt O25100 1-270)
T6 sequence: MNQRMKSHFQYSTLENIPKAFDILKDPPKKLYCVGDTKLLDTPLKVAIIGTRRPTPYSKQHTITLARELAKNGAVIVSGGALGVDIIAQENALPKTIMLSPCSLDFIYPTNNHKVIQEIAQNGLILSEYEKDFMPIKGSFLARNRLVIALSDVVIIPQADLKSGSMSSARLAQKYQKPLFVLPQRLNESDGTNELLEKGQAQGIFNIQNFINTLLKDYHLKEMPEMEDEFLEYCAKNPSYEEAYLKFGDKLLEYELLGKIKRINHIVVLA

B1: dT35 (ssDNA)
DNA: TTTTTTTTTTTTTTTTTTTTTTTTTTTTTTTTTTT
- Kd [1]: 5.47 ± 0.246 µM
- Kd [2]: 7.22 ± 0.216 µM
- binding result [3]: no binding
- Kd [4]: 0.0306 ± 0.000998 µM
- binding result [5]: no binding
- Kd [6]: 0.00226 ± 0.000167 µM
